Laboratory results published in the nanobody polyreactivity screen of Harvey et al. (2022).

Experiment: yeast display, Sf9 membrane polyspecificity reagent, FACS + sequencing; frameworks hold sequencing errors
How it was run: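 After 36–48 hours of galactose induction, yeast (Saccharomyces cerevisiae BJ5465) displaying a synthetic nanobody library were stained at 4 °C for 1 hour with 10% biotinylated, detergent-solubilized Sf9 membrane reagent. Streptavidin microbeads enriched the stained cells before FACS sorting into low and high (top ~1%) gates on anti-HA and streptavidin fluorescence. Each clone's polyreactivity label reflects its gate of origin.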

Sequence	polyreactivity (PSR sort gate)
QVQVVDSGGGLVQAGGSLRLSCAASGLTIVKNVMGWYRQAPGKERELVAAISRRGGSTYYADSVKGRFTISRDNAKNTVYLQMNSLKPEDTAVYYCNAVLNQLSYIYPAVGYWGQGTQVTVSS	high polyreactivity
QVQLVESGGGLVQAGGSLRLSCAASGLIFGYNAMGWYRQAPGKERELVAAISRRGTSTYYADSVKGRFTISRDNAKNTVYLQMNSLKPEDTAVYYCATYGVNPPGVEEYNYWGQGTQVTVSS	high polyreactivity
QVQLVESGGGLVQAGGSLRLSCAASGFTFAWNAMGWYRQAPGKERELVATIDVSGGSTYYADSVKGRFTISRDNAKNTVYLQMNILKPEDTAVYYCAADELPEGGYDYWGHGTQVTVSS	low polyreactivity
QVQIVESGGGLVQAGGSLRLSCAASGSIFVWYAMGWYRQAPGKERELVARITSGGRTNYADSVKGRFTISRDNAKNTVYLQMNSLKPEDTAVYYCAAGRVSWSPYYYWGQGTQVTVSS	high polyreactivity
QVQLVESGVGLGQAGGSLRLSCAASGRTYWRYAMGWYRQAPGKETELVASINWNGGSTYYADSVKGRFTNSRDNAKNTVYLQMNSLKPEDTAVYYCAALRWPVYLFDYWGQGTQVTVSS	high polyreactivity
QVQLVESGGGLVQAGGSLRLSCAASGLIFPCYDMGWYRQAPGKERELVAAISDSGANTYYADSVKGRFTISRDNAKNTVYFQMNSLKPEDTAVYYCAAESSWWYGTSFGRFDYWGQGTQVTVSS	low polyreactivity
QVQLVESGGGLVQAGGSLRLSCAASGSIFDWYAMGWYRQAPGKEGELVAAISSGDSTYYADSVKGRFTISRDNAMNTVYLQMNSLKPEDTAVYYCAAVTKLSGIRYNYWGQGTQVTVSS	low polyreactivity
QVQLVESGGGLVQAGGSLRLSCAASGRIFGYTMGWYRPAPGKERELVAAISRSAGSTYYADSVKGRFTISRDNAKNTVYLQMNSLKPEDTAVYYCAATGRYYREYDYWGQGTQVTVSS	high polyreactivity
QVQLVESGGGIVQAGGSLRLSCAASGRIFAWNAMGWYRQAPGKERELVAYADSVKGRFTISRDNAKNTVYLQMHSLNPEDSAVYYCAKVVTPYVPGDSYWYDYWGQGTQVTVSS	low polyreactivity
QVQLVESGGGLVQAGGSLRLSCAASGRTFGQNAMGWYRQAPGKERELVATITLNGGNTYYADSVKGRFTISRDNAKNTVYLQMNSLKPEDTAVYYCNAVPSWYRYRPPRFDYWGQGTQVTVSS	low polyreactivity
QVQLVESGGGLVQAGGSLRLSCSASGSIFKIYAMGWYRQAPGKERELVASITGSGGSTYYADSVKGRFTISRDNAKNTVYLQMNSLKPEDTAVYYCAAAVLGSSKSEVDPDRPEYYYWGQGTQVTVSS	low polyreactivity
QVQLVESGGGLVQAGGSLLLSCAASGSIFDFYGMGWDRQAPGKERELVATITGTGGGTYYADSVKGRFTISRDNAKNTVYLKMNSLKPEDTAVYYCAADYPYGYWRGLFYYWGQGTQVTVSS	low polyreactivity
QVQLVETGGGLVQAGGSLRLSCAASGSIFPSYAMGWYRPAPAKERELVAAISRSAGSTYYADSVKGRFTISRDNSKNTVYLQMNSLKPEDTAVYYCADDGYSSRYRYDYWGQGTQVTVSS	low polyreactivity
QVQLVESGGGLVQAGGSLRLSCAASGRIFYTYAMGWYRQAPGKERELVAAIRWRGGSTHYADSVKGRFTISRDNAKNTVYLQMNSLKPEDTAVYYCARDGGWYIDGRAYTGDYWGQGTQVTVSS	high polyreactivity
QVHLVESGGGLVQAGGSLRLSCAASGRTFGYYAMGWYRQAPGKERELVAAITRTGGSTHYADSVKGRFTISRDNAKNTVYLQMNSLKPEDTAVYYCAADKRGTVYLSSFWMDYWGQGTQVTVSS	low polyreactivity
QVQLVESGGGLVQAGGSLRLSCAASGSTFRINAMGWYRQAPGKERELVAAITSGGSTKYADSVKGRFTISRDNAKNTVYLQMNSLKPEDTAVYYCNKQGYPYRYFAWYPGYNYWGQGTQVTVSS	low polyreactivity
QVQLVESGGGLVQAGASLRLSCASSGSIFPGYDMGWYRQAPGKEREMVAAITTGGSTYYADSVKGRFTISRDNAKNTVYLQMNSLKPEDTAVYYCAAVYTGSGKRYYKGYYWGQGSQVTVSS	low polyreactivity
QVQLVESGGGLVQAGGSLRLICAASGRIFCRNTMGWYRQAPGKERELVAAINYSGGRTYYADSVKGRFTISRDNAKNTVYLLMNSLKPEDTAVYYCAATPPVATNGRYYYWGQGTQVTVSS	low polyreactivity
QVQLVESGGGLVQAGGSLRLSSAASGRIFPYYAMGWYRQAPGKETELVATISSGGRTNYADSVKGRFTISRDNAKYTVYLQMNSLKPEDTAVYYCAADYRKSRVFYGLYYWGQGTQVTVSS	high polyreactivity
QVQLVESGGGLVQAGGSLRLSCAASGRIFPRYAMGWYRQAPGKERELVAGINSGGRTNYADSVKGRFTISRDNAKNTVYLQMNSLKPEDTAVYYCAKRTYPYGTYRSVWGYDYWGQGTQVTVSS	low polyreactivity
QVQLVESGGGLVQAGGSLRLSCAASGFTFVYYVMGWYRPAPGKERELVAAISWSGGRTYYADSVKGRFTISRDNAKNTVYLQMNSLKPDDTAVYYCAAVRPYYYPLPTVPNLPYDYWGQGTQVTVSS	high polyreactivity
QVQLVESGGGLVQAGGSLRLSCAASGSIFDLNVMGWYRQAPGKERELVAAITWSGGSTYYADSVKGRFTISRDNAKNTVYLQMNSLKPEDTAVDYCAADTASGDTLRPTLLYDYWGQGTQVTVSS	low polyreactivity

Sequence	polyreactivity (PSR sort gate)
QVQLVESGGGLVQAGGSLRLSCAASGIIFWYYAMGWYRPAPGKERELVAAISSGGGTNYADSVKGRFTISRDNAKNTVYLQMNSLKPEDTAVYYCAVASGPELDYWGQGTQVTVSS	low polyreactivity
QVQLVESGGGLVQAGGSLRLSCAASGITFSRNAMGWYRQAPGKERELVATITSGGSTNYADSVKGRFTISRDNAQNTVYLQMNSLKPEDTAVYYCNAVWNTFISGRSYDYWGQGTQVTVSS	low polyreactivity
QVQLVESGGGLVQAGGSLRLSCAASGSIFPSYGMGWYRQAPGKERELVARITSGGGTNYADSVKGRFTISRDNAKNTVYLQMNSLKPEDTAVYYFNKAFRGSQGHRGHYRYGYWGQGTQVTVSS	high polyreactivity
QVQLVESGGGLVQAGGSLRLSCAASGSIFIRNAMGWYRQAPGKERELVAAISWGGARTYYADSVKWRFTISRDNAKNTVYLQMNSLKPEDTAVYYCNALNVRGNKFDYWGQGTQVSVSS	high polyreactivity
QVQLVESGGGLVQAGGTLRLSCAASGIIFDTYVMGWYRQAPGKERELVAAITRSGGRTRYADTVKGRFTISRYNAKNTVYLQMNSLKPEDTAVYYCAARIPDRQDGYGYWGQGTQVTVSS	high polyreactivity
QVQLVESGGGLVQAGGRLRLSCAASGRTFPGYDMGWYRQAPGKERELVAAITRSGGSTYYADSVKGRFTISRDNAKNTVYLQMNSLKPEDTAVYYCATERHFYYSTFYYWGQGTQVTVSS	high polyreactivity
QVQLVESGGGLVQAGGSLRLSCAASGSTFEYYAMGWDRQAPGKERELVAAISITGGSSYYADSVKGRFTISRDNAKNTVYLQMNSLKPEDTAVCYCAASVPLARRLGYPWRRAGYNYWGQGTQVTVSS	high polyreactivity
QVQLVESGGGLVQAGGSLPLSCAASGRTFLYNAMGWYRQAPGKERELVAAITKSGGSTYYADSVKGRFTISLDNAKNTVYLQMNTLKPEDTAVYYCAAARRYAYTGGYWGQGTQVTVSS	high polyreactivity
QVQLVESGGGLVQAGGSLRLSCAASGSTFVFYTMGWYRPAPGKERELVAGISRNGGSTYYADSVKGRFTISRDNAKNTVYLQMNSLKTEDSAVYYCAALTWSRAYYSRKFYYWGQGTQVTVSS	high polyreactivity
QVQLVESGGGLVQAGGSLRLSCAASGRTFSTYAMGWCRQAPGKERELVAAISRRGGSTYYADSVKGRFTISRDNAKYTVYLQMNSLKPEDTAVYYGAADSYDSDVNEYDYWGQGTQVTVSS	high polyreactivity
QVQLVESGGGLVQAGGSLRLSCAACGGIFWHYTLGWYRKAPGKERELVAAITRRGGSTYYADSVMGRFTISRDNAKNTVYLQMNSLKPEDTAVYYCAADFLPQSYNWYDYWGQGTQVTVSS	low polyreactivity
QVHLVESGGGLVQAGGSLRISCAASGSSFSIYAMGSYRQAPGKERELVAAITCTVGSTYYADSVKGRFTISRDIAKYTVYLPLNSLKPEDTAVYYFAARQVNYDYDFWGQGTQVTVSS	low polyreactivity
QDQLVESGGGLVQAGGSLRLSCAASGGTFGPNAMGWYRQSPGKERELVAAISASGGITYYADSVKGRFTISRDNAKNTVYLQMNSLKPEDTAVYYCAAAITWIYSQAAFKIVQYDYWGQGTQVTVSS	low polyreactivity
QVQLVESGGGLVQAGGSLRLSCAASGYTFSDNAMGWYRQAPGKEWELVAAISTGGSTNYADSVKGRFTISRDNAKNTVYLQMNSLKPEDTAVYYCATDAWSFGYNYVPLHYDYWGQGTQVTVSS	low polyreactivity
QVQLVESGGGLVQAGGSLRLSCAASGSIFIVYAMGWYRQAPGKERELVATITSGGSTNYADSVKGRFTISRDNAKNTVYVQMNSLKPEVTAVYYCAAESYWGSGVVPGYDYWGQGTQVTVSS	low polyreactivity
QVQLVESGGGLVQAGGSLRLSCAASGNIFHYYPMGWYRQAPGKERELVATISWRGDGTNYADSVKGRFTISRDNEKNTVYLQMISLKPEDTAVYYCAARGVWPDYDYWGQGTQVTVSS	low polyreactivity
QVQLVESGGGLVQAGGSLRLSCAASGSIFLLYAMGWYRQAPGKERELVAAISLSTGNTYYADSVKGRFTISRDNAKNTVYLQMNSLKPEDTAVYYCAAEDYWSAYYWGQGTQVTVSS	high polyreactivity
QVQLVESGGGLVQAGGSLRLSCAASGSTCGTNAMGWYRQAPGKERELVAAITWSGGRTYYADSVKGRFTISRDNAKNTVYLQMISLKPEDTAVYYCNAGYSYRRRNGYGYDYWGQGTQVTVSS	high polyreactivity
QVQLVESGGGLVHAGGSLRLSCAASGSIFQYNAMGWYRQAPGKERELVATISSGGSTNYADSVKGRFTISRDNAKNTVYLQMNSLKPEDTAVYYCAAVVIVFYYAPNYWGDIEYGYWGQGTQVTVSS	low polyreactivity
QVQLVESGGGLLQAGGSLRLICAASGSIFGANTMGWYRPAPGKERELVAGITSGARTYYADSVKGRFTMSRDNAKNTVYLQMNSLQPEDTAVYYCAANYAWRRYGYWGNGTQVTVSS	high polyreactivity
QVQLVESGGGLVQAGGSLRLSCAASGFTFGPYAMGWYRQAPGNEMELVAGITWSGASTYYADSVKGRFTISRDNAKNTVYLQMNSLNPEDSAVYYCARYYRLVSRYDYWGQGRQVTVSS	low polyreactivity
